# Source: US20150344570A1 (published 2015)
# B1: GpH7-A5/GpH7-B3-15-02A/GpL16-k0 (antibody, human IgG1, kappa)
# heavy 1: not shown
# heavy 2: not shown
# light: DIVMTQSPLSLPVTPGEPASISCQASESLVHSNRNTYLHWYLQKPGQSPQLLIYKVSNRFSGVPDRFSGSGSGTDFTLKISRVEAEDVGVYYCSQNTHVPPTFGQGTKVEIERTVAAPSVFIFPPSDEQLKSGTASVVCLLNNFYPREAKVQWKVDNALQSGNSQESVTEQDSKDSTYSLSSTLTLSKADYEKHKVYACEVTHQGLSSPVTKSFNRGEC
# notes: also called GpH7-A5/GpH7-B3 variant (S298A)/GpL16-k0; He Ab S298_02A
# B2: GpH7-A5/GpH7-B3 variant (K334E)/GpL16-k0 (antibody, human IgG1, kappa)
# heavy 1: not shown
# heavy 2: not shown
# light: B1 light
# notes: also called He Ab K334_10E
# B3: GpH7-A5/GpH7-B3 variant (K334I)/GpL16-k0 (antibody, human IgG1, kappa)
# heavy 1: not shown
# heavy 2: not shown
# light: B1 light
# notes: also called He Ab K334_07I
# B4: GpH7-A5/GpH7-B3 variant (K334D)/GpL16-k0 (antibody, human IgG1, kappa)
# heavy 1: not shown
# heavy 2: not shown
# light: B1 light
# notes: also called He Ab K334_09D
# B5: GpH7-A5/GpH7-B3 variant (H268A)/GpL16-k0 (antibody, human IgG1, kappa)
# heavy 1: not shown
# heavy 2: not shown
# light: B1 light
# notes: also called He Ab H268_02A
# B6: GpH7-A5/GpH7-B3 variant (K326T)/GpL16-k0 (antibody, human IgG1, kappa)
# heavy 1: not shown
# heavy 2: not shown
# light: B1 light
# notes: also called He Ab K326_14T
# B7: GpH7-A5/GpH7-B3 variant (A330M)/GpL16-k0 (antibody, human IgG1, kappa)
# heavy 1: not shown
# heavy 2: not shown
# light: B1 light
# notes: also called He Ab A330_06M
# B8: GpH7-A5/GpH7-B3 variant (K326D)/GpL16-k0 (antibody, human IgG1, kappa)
# heavy 1: not shown
# heavy 2: not shown
# light: B1 light
# notes: also called He Ab K326_09D
# B9: GpH7-A5/GpH7-B3 variant (A330P)/GpL16-k0 (antibody, human IgG1, kappa)
# heavy 1: not shown
# heavy 2: not shown
# light: B1 light
# notes: also called He Ab A330_05P
# B10: GpH7-A5/GpH7-B3 variant (A330F)/GpL16-k0 (antibody, human IgG1, kappa)
# heavy 1: not shown
# heavy 2: not shown
# light: B1 light
# notes: also called He Ab A330_04F
# B11: GpH7-A5/GpH7-B3 variant (H268E)/GpL16-k0 (antibody, human IgG1, kappa)
# heavy 1: not shown
# heavy 2: not shown
# light: B1 light
# notes: also called He Ab H268_10E
# Target: T1, FcgRIIIa F (FcγRIIIa type F) extracellular domain with C-terminal His tag (human, UniProt P08637 17-208)
# T1 construct: extracellular domain; also called FcγRIIIa F; 3aF; not shown: His tag attached to the C terminus
# Assay: SPR (Biacore); relative binding activity of the heterodimerized antibody with the alteration in one H chain
# T1 sequence (P08637 17-208): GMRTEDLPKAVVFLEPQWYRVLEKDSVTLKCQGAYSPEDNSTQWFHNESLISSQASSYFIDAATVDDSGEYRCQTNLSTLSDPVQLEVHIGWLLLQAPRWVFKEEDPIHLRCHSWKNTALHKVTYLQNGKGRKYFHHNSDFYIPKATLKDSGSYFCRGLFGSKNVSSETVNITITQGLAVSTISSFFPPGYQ
row,He/Con_3aF,Binder
1,151 % of GpH7-A5/GpH7-B3/GpL16-k0 (= 100),B1
2,186 % of GpH7-A5/GpH7-B3/GpL16-k0 (= 100),B2
3,156 % of GpH7-A5/GpH7-B3/GpL16-k0 (= 100),B3
4,164 % of GpH7-A5/GpH7-B3/GpL16-k0 (= 100),B4
5,121 % of GpH7-A5/GpH7-B3/GpL16-k0 (= 100),B5
6,140 % of GpH7-A5/GpH7-B3/GpL16-k0 (= 100),B6
7,139 % of GpH7-A5/GpH7-B3/GpL16-k0 (= 100),B7
8,148 % of GpH7-A5/GpH7-B3/GpL16-k0 (= 100),B8
9,152 % of GpH7-A5/GpH7-B3/GpL16-k0 (= 100),B9
10,144 % of GpH7-A5/GpH7-B3/GpL16-k0 (= 100),B10
11,184 % of GpH7-A5/GpH7-B3/GpL16-k0 (= 100),B11
